From PMC8949286, “A New Strategy for As(V) Biosensing Based on the Inhibition of the Phosphatase Activity of the Arsenate Reductase from Thermus thermophilus” (International Journal of Molecular Sciences, 2022) come the findings set out here.

Data set [1] concerns the target T1, TtArsC (Thermus thermophilus, UniProt Q72HI5).
T1 construct: gene TT_C1502; recombinant, pET30/TtarsC in E. coli BL21-CodonPlus(DE3)-RIL; thermo-precipitation, anion exchange (Resource Q), gel filtration (Superdex S75); no tag mentioned
T1 sequence (Q72HI5 1-150): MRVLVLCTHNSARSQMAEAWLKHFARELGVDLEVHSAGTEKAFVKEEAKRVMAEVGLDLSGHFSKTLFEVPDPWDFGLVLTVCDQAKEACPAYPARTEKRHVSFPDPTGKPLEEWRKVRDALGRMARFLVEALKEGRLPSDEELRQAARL
As to the kind of experiment: biochemical.

Substrate in data set [2]: O=[N+]([O-])c1ccc(OP(=O)(O)O)cc1
Briefly: purified protein. In kind it is biochemical, Thermus thermophilus. The conditions noted are these: no inhibitor, 4 µM enzyme, 20 mM Tris-HCl pH 7, 60 °C.

What is called Ki is a measure of affinity in units of concentration, obtained from inhibition or displacement. A higher Ki goes with weaker binding. Broadly, the Km is the concentration of substrate that gives half-maximal velocity. What is called Vmax is the top rate of the reaction or transport when substrate is in excess. Broadly, the kcat is the maximal rate divided by the concentration of active sites.

Turning to `O=[As]O` [As(III)], the inhibitory constant (Ki) in data set [1] was found to be 394 ± 40.3 µM.

B1: TtArsC (Thermus thermophilus HB27) (protein)
chain: MRVLVLCTHNSARSQMAEAWLKHFARELGVDLEVHSAGTEKAFVKEEAKRVMAEVGLDLSGHFSKTLFEVPDPWDFGLVLTVCDQAKEACPAYPARTEKRHVSFPDPTGKPLEEWRKVRDALGRMARFLVEALKEGRLPSDEELRQAARL
notes: recombinant, pET30/TtarsC in E. coli BL21-CodonPlus(DE3)-RIL; thermo-precipitation, anion exchange (Resource Q), gel filtration (Superdex S75); no tag mentioned
For B1, in data set [2], the Km is 9.57 ± 1.95 mM, the maximal velocity (Vmax) stood at 0.0193 µmol/min/mg and the kcat was determined as 0.005 s⁻¹.
